From US20250388643A1, “GLUCAGON-LIKE PEPTIDE-2 COMPOSITIONS AND METHODS OF MAKING AND USING SAME” (Amunix Pharmaceuticals, Inc., priority 2011, published 2025) come the findings set out here.

Like-named read-outs stand apart in the source and are kept apart here. Marks after values point to notes of the source that are not given here.

Data set [1] deals with indomethacin-induced intestinal inflammation in Wistar rats. As to the kind of experiment: Rat Crohn's Disease indomethacin-induced intestinal inflammation model, Study 3. Type of data set: in vivo. The method, then: Study 3: A third indomethacin-induced inflammation study was performed to verify previous results and test additional dose regimens. Intestinal inflammation was induced in male Wistar rats (Harlan Sprague Dawley) using indomethacin administered on Days 0 and 1 of the experiment according to Table 21.
All treatments were administered per the schedule starting on Day-3 of the experiment. Body weights were determined daily. On Day 2 (24 hours post-2nd indomethacin dose), the animals were prepped for sacrifice and analysis. The small intestines were removed and the length of each was recorded. Quantitative histopathology was performed on a subset of samples. Rat small intestine samples consisted of a 3 cm section of proximal jejunum and a 3 cm section of mid-jejunum collected 15 cm and 30 cm from the pylorus, respectively. Samples were fixed in 10% neutral buffered formalin. Samples were trimmed into multiple sections without bias toward lesion presence or absence. These sections were placed in cassettes, embedded in paraffin, microtomed at approximately 4 microns thickness, and stained with hematoxylin and eosin (H&E). The slides were evaluated microscopically by a board certified veterinary pathologist and scored for villous height as well as infiltration/inflammation, mucosal atrophy, villi/crypt appearance, abscesses/ulceration. A 1 to 4 severity grading scale was used, where 1=minimal, 2=mild, 3=moderate, 4=marked/severe, reflecting the combination of the cellular reactions seen histopathologically. Small intestine length was analyzed with an ANOVA model with a Tukey/Kramer post-hoc test for pairwise comparisons, with significance at p=0.05. Non-parametric histology score variables were compared with the vehicle control using a Mann Whitney U test with a Bonferroni correction for the p-value to create an overall alpha of 0.05.

For data set [2] the following is noted: cynomolgus monkey, in vivo. The procedure: The fusion protein GLP2-2G-XTEN_AE864 was evaluated for its pharmacokinetic properties in male cynomolgus monkeys following either subcutaneous or intravenous administration of the fusion protein at a single dosage level. Three male cynomolgus monkeys were injected IV and 3 male cynomolgus monkeys were injected SC with 2 mg/kg (25 nmol/kg) GLP2-2G-XTEN at time 0. Blood samples were collected from each monkey into prechilled heparinized tubes at pre-dose and at approximately 0.083 h (5 min), 1, 2, 4, 8, 24, 48, 72, 96, 120, 168, 216, 264, and 336 hours after administration of the fusion protein for the first phase of the study. Animals were allowed to “wash-out” for a 6 week period (4 weeks post-last collection time point of Phase 1), the groups were crossed over (SC to IV and IV to SC), and dosed again with the same dose of GLP2-2G-XTEN fusion protein. Blood samples were collected at pre-dose and at approximately 0.083 h (5 min), 1, 2, 4, 8, 24, 48, 72, 96, 120, 168, 216, 264, 336, 384, 432, and 504 hours post-dose in the second phase of the study. All blood samples were processed into plasma by centrifugation and split into two aliquots for analysis by ELISA. The samples were analyzed for fusion protein concentration, performed by anti-GLP2/anti-XTEN ELISA (AS1705) and the results were analyzed using WinNonLin to obtain the PK parameters.

For data set [3] the following is noted: mouse, in vivo. The method, then: The fusion protein GLP2-2G-XTEN_AE864 was evaluated for its pharmacokinetic properties in C57Bl/6 mice following subcutaneous (SC) administration. Female C57Bl/6 mice were injected SC with 2 mg/kg (25 nmol/kg) of the GLP2-2G-XTEN (lot AP498A) at 0.25 mg/mL (8 mL/kg). Three mice were sacrificed at each of the following time points: Predose, 0.08, 4, 8, 24, 48, 72, 96 and 120 hours post-dose. Blood samples were collected from the mice and placed into prechilled heparinized tubes at each interval and were separated by centrifugation to recover the plasma. The samples were analyzed for fusion protein concentration, performed by both anti-XTEN/anti-XTEN sandwich ELISA (AS1405) and anti-GLP2/anti-XTEN sandwich ELISA (AS1717), and the results were analyzed using WinNonLin to obtain the PK parameters.

On the set-up of data set [4]: species or system human. The text has this: The cumulative results of the PK analyses were used to perform allometric scaling of GLP2-2G_AE864 terminal half-life, clearance and volume of distribution using data from three species (mouse, rat and monkey). Pharmacokinetic values for a 70 kg human were predicted by extrapolating the log linear relationship between body weight and each pharmacokinetic parameter, as shown in FIG. 17. […] The terminal half-life in humans can also be estimated using the predicted values for clearance (Cl) and volume of distribution (Vd) as 0.693×Vd/Cl.

Data set [5] is described as follows: Analytical size exclusion HPLC of GLP2-2G-XTEN (apparent molecular weight). The format is physicochemical. The method, then: Gel filtration analysis was performed using a Phenomenex BioSep-SEC-s4000 (7.8 mm×600 mm) column. 20 μg or AP690 GLP2-2G-XTEN fusion protein were analyzed at a flowrate of 0.5 ml/min with 50 mM Phosphate pH 6.5, 300 mM NaCl mobile phase. Elution was monitored using OD215 nm. Column calibration was performed using a size exclusion check standard from Phenomenex, with the following markers: thyroglobulin (670 kDa), IgG (156 kDa), BSA (66 kDa) and ovalbumin ([…]). The result (FIG. 11B) indicated an apparent molecular weight of 1002 kDa for the fusion protein of 83.1 kDa actual weight, for an apparent molecular weight factor of […].
On the technique in general: Size exclusion chromatography separates by hydrodynamic size, large species first.

B1: GLP2-2G-XTEN_AE864: fusion protein of GLP-2 with glycine at position 2 linked at the C-terminus to XTEN AE864; sequence of FIG. 28 (SEQ ID NO: 798) (protein)
chain: HGDGSFSDEMNTILDNLAARDFINWLIQTKITDGGSPAGSPTSTEEGTSESATPESGPGTSTEPSEGSAPGSPAGSPTSTEEGTSTEPSEGSAPGTSTEPSEGSAPGTSESATPESGPGSEPATSGSETPGSEPATSGSETPGSPAGSPTSTEEGTSESATPESGPGTSTEPSEGSAPGTSTEPSEGSAPGSPAGSPTSTEEGTSTEPSEGSAPGTSTEPSEGSAPGTSESATPESGPGTSTEPSEGSAPGTSESATPESGPGSEPATSGSETPGTSTEPSEGSAPGTSTEPSEGSAPGTSESATPESGPGTSESATPESGPGSPAGSPTSTEEGTSESATPESGPGSEPATSGSETPGTSESATPESGPGTSTEPSEGSAPGTSTEPSEGSAPGTSTEPSEGSAPGTSTEPSEGSAPGTSTEPSEGSAPGTSTEPSEGSAPGSPAGSPTSTEEGTSTEPSEGSAPGTSESATPESGPGSEPATSGSETPGTSESATPESGPGSEPATSGSETPGTSESATPESGPGTSTEPSEGSAPGTSESATPESGPGSPAGSPTSTEEGSPAGSPTSTEEGSPAGSPTSTEEGTSESATPESGPGTSTEPSEGSAPGTSESATPESGPGSEPATSGSETPGTSESATPESGPGSEPATSGSETPGTSESATPESGPGTSTEPSEGSAPGSPAGSPTSTEEGTSESATPESGPGSEPATSGSETPGTSESATPESGPGSPAGSPTSTEEGSPAGSPTSTEEGTSTEPSEGSAPGTSESATPESGPGTSESATPESGPGTSESATPESGPGSEPATSGSETPGSEPATSGSETPGSPAGSPTSTEEGTSTEPSEGSAPGTSTEPSEGSAPGSEPATSGSETPGTSESATPESGPGTSTEPSEGSAPG
For the molecule B1, the small intestine length entry in data set [1] (compared to vehicle-treated diseased rats, FIG. 24A) is recorded as “increase in small intestine length”. Also, the “efficacy by regimen compared with peptide” value in data set [1] (dosed once at 75 nmol/kg or three times at 25 nmol/kg) was “as effective as GLP2-2G peptide dosed ten times at 12.5 nmol/kg”. Moreover, the villi height result in data set [1] (fusion protein high (total dose 125 nmol/kg) and low (total dose 75 nmol/kg), FIG. 24B) was “significant increase in villi height”. Besides, the mucosal atrophy score entry in data set [1] (high and low dose, vs vehicle-treated diseased rats, FIG. 24C) was “significantly lower mucosal atrophy score”. Moreover, in data set [1] (rat, in vivo), the “efficacy in improving indomethacin-induced small intestine damage (histopathology)” value is reported as “as good or better than GLP2-2G peptide”. In addition, in data set [1] (three treatment groups), the “mucosal ulceration and mixed cell infiltrate” value is listed as “not significant”. Moreover, the Cl was 1.6 mL/h in data set [2]; 1.9 mL/h in data set [2] (iv, 2 mg/kg); 0.07 mL/h in data set [3]; 17* ml/hr in data set [4]. Moreover, the “T ½” value in data set [2] was 125 h; in data set [2] (iv, 2 mg/kg), 110.0 h; in data set [2] (sc, 2 mg/kg), 120.0 h; in data set [3], 33.9 h; in data set [4] it was 240* hr. The Vd in data set [2] is 0.098 L/kg; in data set [2] (iv, 2 mg/kg), 0.09 L/kg; in data set [2] (sc, 2 mg/kg) it was 0.11 L/kg; in data set [3] it was 0.14 L/kg; in data set [4] it was 91* mL/kg. Besides, the AUCInf is 3,700,000 hr * ng/mL in data set [2] (iv, 2 mg/kg) and 3,400,000 hr * ng/mL in data set [2] (sc, 2 mg/kg). In addition, the apparent molecular weight in data set [5] (SEC, BioSep-SEC-s4000, 50 mM Phosphate pH 6.5, 300 mM NaCl, lot AP690) was 1002 kDa. For the same molecule, the “apparent molecular weight factor” value in data set [5] (apparent vs 83.1 kDa actual weight) is 12.5.
